According to PMC8622166:

What was measured:
[1] = molecular target: RAC1^ΔC10 (C-terminal truncated variant lacking HVR-CAAX) (human) (UniProt P63000); experiment: fluorescence polarisation; increasing GDI1 (variants) titrated to 0.2 µM mdGDP-bound RHO protein, 200 µL; 25 °C, 30 mM Tris/HCl pH 7.5, 10 mM K2HPO4/KH2PO4 pH 7.5, 5 mM MgCl2, 3 mM DTT; quadratic binding equation
[2] = molecular target: RAC1, RAC3, RHOG and RHOA; experiment: stopped-flow fluorimetry; kon from kobs against increasing GDI concentrations mixed with 0.2 µM mdGDP-bound RHO GTPase; koff by displacement with excess unlabeled GDP-bound RHO protein; Kd = koff/kon; 25 °C, 30 mM Tris/HCl pH 7.5, 10 mM K2HPO4/KH2PO4 pH 7.5, 5 mM MgCl2, 3 mM DTT
[3] = molecular target: geranylgeranylated RAC1 (RAC1^GG) (human) (UniProt P63000); experiment: as above
[4] = molecular target: geranylgeranylated RAC1 (RAC1^GG) (human) (UniProt P63000); experiment: not stated
[5] = molecular target: CDC42 (Homo sapiens) (UniProt P60953); conditions: cited from earlier work
[6] = molecular target: RAC1 (Homo sapiens) (UniProt P63000); conditions: cited from earlier work
[7] = molecular target: RHOA (Homo sapiens) (UniProt P61586); conditions: cited from earlier work
[8] = molecular target: geranylgeranylated RAC1 (RAC1^GG) (human) (UniProt P63000); experiment: stopped-flow fluorimetry; association (kobs) at one concentration: 2 µM GDI mixed with 0.2 µM mdGDP-bound RHO GTPase; 25 °C, 30 mM Tris/HCl pH 7.5, 10 mM K2HPO4/KH2PO4 pH 7.5, 5 mM MgCl2, 3 mM DTT
[9] = molecular target: non-isoprenylated RAC1 full-length (RAC1^FL) (human) (UniProt P63000); experiment: as above
[10] = molecular target: non-isoprenylated RAC1 full-length (RAC1^FL) (human) (UniProt P63000); experiment: fluorescence polarisation; increasing GDI1 (variants) titrated to 0.2 µM mdGDP-bound RHO protein, 200 µL; 25 °C, 30 mM Tris/HCl pH 7.5, 10 mM K2HPO4/KH2PO4 pH 7.5, 5 mM MgCl2, 3 mM DTT; quadratic binding equation
[11] = molecular target: non-isoprenylated RAC1 full-length (RAC1^FL) (human) (UniProt P63000); experiment: stopped-flow fluorimetry; kon from kobs against increasing GDI concentrations mixed with 0.2 µM mdGDP-bound RHO GTPase; koff by displacement with excess unlabeled GDP-bound RHO protein; Kd = koff/kon; 25 °C, 30 mM Tris/HCl pH 7.5, 10 mM K2HPO4/KH2PO4 pH 7.5, 5 mM MgCl2, 3 mM DTT

Sequence of CDC42 (Homo sapiens) (P60953 1-188): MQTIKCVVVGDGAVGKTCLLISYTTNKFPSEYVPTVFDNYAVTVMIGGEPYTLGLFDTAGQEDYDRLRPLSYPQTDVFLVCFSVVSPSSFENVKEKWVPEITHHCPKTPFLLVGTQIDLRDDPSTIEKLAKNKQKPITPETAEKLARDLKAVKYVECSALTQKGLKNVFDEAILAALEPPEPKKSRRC
Sequence of RHOA (Homo sapiens) (P61586 1-190): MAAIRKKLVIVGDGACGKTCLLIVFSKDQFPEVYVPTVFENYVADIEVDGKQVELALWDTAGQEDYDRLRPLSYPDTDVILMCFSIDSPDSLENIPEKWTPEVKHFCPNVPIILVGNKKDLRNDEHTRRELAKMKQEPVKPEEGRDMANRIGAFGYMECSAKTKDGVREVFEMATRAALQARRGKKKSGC

Substance: GDI1 (RHOGDI1), wild type (from UniProt P52565 1-204) (natural protein)
- fold lower affinity than for RAC1 [1]: 26 fold
- Kd [2]: 900 to 3200 nM
- fold difference of koff between RAC1^GG and RAC1^FL [3]: 3 fold
- fold higher affinity than for RAC1^FL (Kd from koff/kon) [3]: 7 fold
- Kd [4]: 180 nM
- fold lower Kd than for RAC1^FL [4]: 2.5 to 4.6 fold

Substance: GDI1 (from UniProt P52565)
- Kd [5]: 1.6 nM
- Kd [6]: 0.4 nM
- Kd [7]: 0.005 nM

Substance: GDI1^ΔC6 (from UniProt P52565 1-198) (domain or fragment)
- fold slower association rate than GDI1^WT [8]: < 24 fold
- fold slower association rate than GDI1^WT [9]: < 24 fold
- fold change of Kd against GDI1^WT [10]: 140 fold
- fold difference in kon against GDI1 wt [11]: > 100 fold

Substance: GDI1^ΔN15 (from UniProt P52565 16-204) (domain or fragment)
- fold slower association rate than GDI1^WT [8]: < 24 fold
- fold slower association rate than GDI1^WT [9]: < 24 fold
- fold change of Kd against GDI1^WT [10]: 440 fold
- fold difference in kon against GDI1 wt [11]: > 100 fold
